From article doi:10.1101/2025.05.02.651858

Molecular target: ϕC31 integrase^S12A-RDF fusion protein (Streptomyces phage ϕC31) (UniProt Q9T221)
Test: SEC-MALS

ϕC31 integrase^S12A-RDF fusion protein (from UniProt Q9T221 1-605)
stoichiometry N: 4
